For the assay, the target named is T1, N terminally FLAG-tagged Tgl2 (S. cerevisiae, UniProt P54857 1-326).
T1 construct: Tgl2, S. cerevisiae; FLAG tag inserted at the N terminus of the ORF of Tgl2; the printed primer puts Met-FLAG directly before the second codon (AAA) of Tgl2; also called FLAG-Tgl2; source: S. cerevisiae tgl2Δ cells, coexpressed with HA-Tgl2 from plasmid pYX122; in solubilised mitochondria; not shown: FLAG, N-terminal, kept
T1 sequence (looked up): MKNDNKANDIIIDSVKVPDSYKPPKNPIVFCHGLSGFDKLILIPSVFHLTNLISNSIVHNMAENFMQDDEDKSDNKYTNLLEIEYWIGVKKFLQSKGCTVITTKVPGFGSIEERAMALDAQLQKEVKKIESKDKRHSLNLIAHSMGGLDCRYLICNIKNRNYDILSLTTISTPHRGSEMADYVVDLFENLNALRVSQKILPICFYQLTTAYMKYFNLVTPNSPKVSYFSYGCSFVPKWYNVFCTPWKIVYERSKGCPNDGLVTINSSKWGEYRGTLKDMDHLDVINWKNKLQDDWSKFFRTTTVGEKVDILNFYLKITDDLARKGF
The experiment in a line: native gel or EMSA; antibody shift assay: digitonin-solubilised mitochondria with HA-Tgl2 and FLAG-Tgl2 incubated with 0, 0.5 or 1 μl anti-HA antibody on ice for 30 min, BN-PAGE, immunodecoration with anti-FLAG. The note with it: partners not purified. Background: In EMSA bound probe runs differently from free probe, usually more slowly.

Some results are limits rather than exact numbers.

B1: N terminally hemagglutinin (HA) tagged Tgl2 (natural protein, S. cerevisiae, UniProt P54857 1-326, looked up)
chain: MKNDNKANDIIIDSVKVPDSYKPPKNPIVFCHGLSGFDKLILIPSVFHLTNLISNSIVHNMAENFMQDDEDKSDNKYTNLLEIEYWIGVKKFLQSKGCTVITTKVPGFGSIEERAMALDAQLQKEVKKIESKDKRHSLNLIAHSMGGLDCRYLICNIKNRNYDILSLTTISTPHRGSEMADYVVDLFENLNALRVSQKILPICFYQLTTAYMKYFNLVTPNSPKVSYFSYGCSFVPKWYNVFCTPWKIVYERSKGCPNDGLVTINSSKWGEYRGTLKDMDHLDVINWKNKLQDDWSKFFRTTTVGEKVDILNFYLKITDDLARKGF
notes: Tgl2, putative mitochondrial triacylglycerol lipase of the intermembrane space, S. cerevisiae; also called HA-Tgl2; native-like HA-Tgl2; source: S. cerevisiae (tgl2Δ, yme1Δ and other deletion strains), overexpressed from plasmid pYX142; in whole cell lysate, crude or isolated mitochondria; not shown: HA, N-terminal, kept
Regarding B1, the “stoichiometry N” value was at least 2.

In general, stoichiometry N refers to the number of molecules, sites or subunits per partner or assembly.
